# T1: recombinant human CD30L protein (human, UniProt P32971 63-234)
# T1 construct: also called rhCD30L; huCD30L (ELISA)
# T1 sequence (looked up): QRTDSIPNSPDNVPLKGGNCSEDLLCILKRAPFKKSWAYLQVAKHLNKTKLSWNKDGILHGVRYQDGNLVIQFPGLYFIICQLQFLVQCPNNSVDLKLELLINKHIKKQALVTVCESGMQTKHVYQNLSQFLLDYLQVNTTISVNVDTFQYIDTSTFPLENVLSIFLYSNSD
# T2: cynomolgus CD30L expressed on cells (cynomolgus, UniProt A0A7N9CVX7 1-234)
# T2 construct: whole, on cells; also called cyCD30L; HEK293-cyCD30L
# T2 sequence: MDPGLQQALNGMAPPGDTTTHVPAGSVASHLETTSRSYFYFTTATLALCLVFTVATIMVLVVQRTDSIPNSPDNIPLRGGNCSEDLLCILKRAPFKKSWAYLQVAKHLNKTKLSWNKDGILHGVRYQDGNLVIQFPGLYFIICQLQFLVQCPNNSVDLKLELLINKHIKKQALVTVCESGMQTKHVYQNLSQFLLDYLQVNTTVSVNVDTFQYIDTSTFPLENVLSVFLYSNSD
# T3: human CD30L expressed on cells (human, UniProt P32971 1-234)
# T3 construct: also called huCD30L; B16-huCD30L
# T3 sequence: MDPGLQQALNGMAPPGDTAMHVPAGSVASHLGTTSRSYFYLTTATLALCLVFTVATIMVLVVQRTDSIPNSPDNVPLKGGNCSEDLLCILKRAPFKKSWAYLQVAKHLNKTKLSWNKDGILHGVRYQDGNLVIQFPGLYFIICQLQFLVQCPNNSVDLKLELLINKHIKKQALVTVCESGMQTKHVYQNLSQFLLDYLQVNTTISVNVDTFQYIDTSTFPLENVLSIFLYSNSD
# T4: recombinant cynomolgus CD30L protein (cynomolgus, UniProt A0A7N9CVX7 63-234)
# T4 construct: Recombinant protein used in ELISA; also called cyCD30L
# T4 sequence: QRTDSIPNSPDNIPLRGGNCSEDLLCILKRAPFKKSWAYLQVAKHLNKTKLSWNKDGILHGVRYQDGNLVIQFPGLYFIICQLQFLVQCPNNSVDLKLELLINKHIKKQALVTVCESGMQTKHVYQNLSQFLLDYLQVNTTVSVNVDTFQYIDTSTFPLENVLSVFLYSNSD
# T5: recombinant human CD30L protein (human, UniProt P32971 63-234)
# T5 construct: Recombinant protein used in ELISA; also called huCD30L
# T5 sequence (looked up): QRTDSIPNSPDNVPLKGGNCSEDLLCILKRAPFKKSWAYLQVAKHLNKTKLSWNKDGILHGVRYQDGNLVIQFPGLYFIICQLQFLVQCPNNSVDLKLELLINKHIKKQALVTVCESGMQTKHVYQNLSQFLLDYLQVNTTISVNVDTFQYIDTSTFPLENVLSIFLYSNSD
# T6: human CD30L expressed on cells (human, UniProt P32971 1-234)
# T6 sequence (looked up): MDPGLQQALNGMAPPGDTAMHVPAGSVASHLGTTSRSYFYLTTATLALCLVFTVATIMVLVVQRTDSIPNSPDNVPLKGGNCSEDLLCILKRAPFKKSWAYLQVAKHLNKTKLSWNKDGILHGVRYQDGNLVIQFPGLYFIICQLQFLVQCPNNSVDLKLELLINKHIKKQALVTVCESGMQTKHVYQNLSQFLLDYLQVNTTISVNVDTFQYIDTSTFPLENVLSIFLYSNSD
# T7: cynomolgus CD30L expressed on HEK293 cells (cynomolgus, UniProt A0A7N9CVX7 1-234)
# T7 sequence: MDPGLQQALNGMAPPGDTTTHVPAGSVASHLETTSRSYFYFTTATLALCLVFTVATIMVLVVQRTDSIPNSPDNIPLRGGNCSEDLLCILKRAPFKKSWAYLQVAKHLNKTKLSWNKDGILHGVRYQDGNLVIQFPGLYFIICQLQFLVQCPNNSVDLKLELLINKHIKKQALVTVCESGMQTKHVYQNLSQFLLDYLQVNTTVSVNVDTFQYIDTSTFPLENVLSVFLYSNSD
# B1: anti-CD30L clone 4 (antibody, V domains shown)
# VH: QVQLVESGGGVVQPGRSLRLSCAASGFPFSSYGMHWVRQAPGKGLEWVTFIWFDGNNKDYADSVKGRFSVSRDNSKNTLYLQMNSLRADDTAVYYCARNGVYYGSGAYVDYWGQGTLVTVSS
# VL: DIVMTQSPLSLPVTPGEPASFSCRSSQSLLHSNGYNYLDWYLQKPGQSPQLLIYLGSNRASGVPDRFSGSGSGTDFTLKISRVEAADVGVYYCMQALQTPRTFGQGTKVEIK
# B2: Clone 4 (antibody, V domains shown)
# VH: QVQLVESGGGVVQPGRSLRLSCAASGFPFSSYGMHWVRQAPGKGLEWVTFIWFDGNNKDYADSVKGRFSVSRDNSKNTLYLQMNSLRADDTAVYYCARNGVYYGSGAYVDYWGQGTLVTVSS
# VL: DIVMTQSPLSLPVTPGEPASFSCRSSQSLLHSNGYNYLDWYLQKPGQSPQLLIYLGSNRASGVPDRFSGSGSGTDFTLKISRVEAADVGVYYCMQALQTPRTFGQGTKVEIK
# notes: Hybridoma screening sample; also called CLONE_4 (parental)
# B3: Clone 2, Mouse IgG (antibody, V domains shown)
# VH: EVQLVESGGGLVQPGRSLRLSCAASGFNFDDYAMHWVRQAPGKGLEWVSGISWRSGNIGYAGSVKGRFTISRDNAKNSLYLQMNSLRPEDSALYYCAKDKGIGFNWNYEGFDYWGQGTLVTVSS
# VL: DIQMTQSPSSLSASVGDRVTITCRASQGISNHLAWFQQKPGKAPKSLIYAASSLQSGVPSKFSGSGSGTDFTLTISSLQPEDFATYYCQQYVTYPLTFGGGTKVEIK
# notes: Mouse IgG format
# B4: Clone 2, Human IgG1 (antibody, V domains shown)
# VH: EVQLVESGGGLVQPGRSLRLSCAASGFNFDDYAMHWVRQAPGKGLEWVSGISWRSGNIGYAGSVKGRFTISRDNAKNSLYLQMNSLRPEDSALYYCAKDKGIGFNWNYEGFDYWGQGTLVTVSS
# VL: DIQMTQSPSSLSASVGDRVTITCRASQGISNHLAWFQQKPGKAPKSLIYAASSLQSGVPSKFSGSGSGTDFTLTISSLQPEDFATYYCQQYVTYPLTFGGGTKVEIK
# notes: Human IgG1 format
# B5: anti-CD30L clone 2 (antibody, V domains shown)
# VH: EVQLVESGGGLVQPGRSLRLSCAASGFNFDDYAMHWVRQAPGKGLEWVSGISWRSGNIGYAGSVKGRFTISRDNAKNSLYLQMNSLRPEDSALYYCAKDKGIGFNWNYEGFDYWGQGTLVTVSS
# VL: DIQMTQSPSSLSASVGDRVTITCRASQGISNHLAWFQQKPGKAPKSLIYAASSLQSGVPSKFSGSGSGTDFTLTISSLQPEDFATYYCQQYVTYPLTFGGGTKVEIK
# notes: From mice with humanized immunoglobulin locus; elsewhere tested as mouse IgG and human IgG1; also called clone 2 parental
# Assays:
# [1] = target: T1, recombinant human CD30L protein; assay: ELISA, huCD30L, 1/50 dil
# [2] = target: T1, recombinant human CD30L protein; assay: ELISA, huCD30L, 1/500 dil
# [3] = target: T1, recombinant human CD30L protein; assay: ELISA, huCD30L, 1/5000 dil
# [4] = target: T2, cynomolgus CD30L expressed on cells; assay: flow cytometry, cyCD30L cells, 1/50 dil
# [5] = target: T3, human CD30L expressed on cells; assay: flow cytometry, huCD30L cells, 1/50 dil
# [6] = target: T4, recombinant cynomolgus CD30L protein; assay: ELISA, 1/50 dil
# [7] = target: T4, recombinant cynomolgus CD30L protein; assay: ELISA, 1/500 dil
# [8] = target: T4, recombinant cynomolgus CD30L protein; assay: ELISA, 1/5000 dil
# [9] = target: T5, recombinant human CD30L protein; assay: ELISA, CD30 competitor, undil
# [10] = target: T5, recombinant human CD30L protein; assay: ELISA, CD30 competitor, 1/10 dil
# [11] = target: T5, recombinant human CD30L protein; assay: ELISA, CD30 competitor, 1/100 dil
# [12] = target: T5, recombinant human CD30L protein; assay: ELISA, CD30 competitor, 1/1000 dil
# [13] = target: T6, human CD30L expressed on cells; assay: cell-based or functional assay
# [14] = target: T7, cynomolgus CD30L expressed on HEK293 …; assay: cell-based or functional assay
# [15] = target: T6, human CD30L expressed on cells; assay: flow cytometry, B16-huCD30L cells
# Method: Anti-CD30L antibody binding to a CD30L target was determined by flow cytometry, using B16 cells transfected to express human CD30L (compared to non-transfected B16), and using HEK293 cells transfected to express cynomolgus CD30L (compared to non-transfected HEK293). […] Cell surface bound antibodies were detected using a fluorescently labeled anti-human-IgG or anti-mouse IgG, depending on the Fc portion of the antibodies. After incubation with the secondary antibody, the cells were washed, fixed in a paraformaldehyde solution, and analyzed by flow cytometry to detect antibody binding.
# [16] = target: T6, human CD30L expressed on cells; assay: flow cytometry, blocking of huCD30 binding to B16-huCD30L cells
Binder,OD [1],OD [2],OD [3],MFI [4],MFI [5],Inhibition of IL-8 release in a dual cell assay (B16-huCD30L cells + K299 cells) IC50 [13],Inhibition of IL-8 release in a dual cell assay (HEK293-cyCD30L cells + K299 cells) IC50 [14],EC50 [15],IC50 [16],also measured
B1,3.08 OD,2.65 OD,0.68 OD,67.8 MFI,151 MFI,–,–,–,–,–
B2,–,–,–,–,–,–,–,–,–,Elisa Binding (OD) [6]: 2.58 OD; Elisa Binding (OD) [7]: 2.38 OD; Elisa Binding (OD) [8]: 0.583 OD; % inhibition [9]: 98%; % inhibition [10]: 96%; % inhibition [11]: 10%; % inhibition [12]: 0%
B3,–,–,–,–,–,1.2 nM,0.46 nM,1.21 nM,1.84 nM,–
B4,–,–,–,–,–,0.6 nM,0.24 nM,0.81 nM,0.86 nM,–
B5,2.15 OD,1.71 OD,0.565 OD,57.6 MFI,280 MFI,–,–,–,–,–
